This is an account of results in article PMC10786891, “Massively parallel profiling of RNA-targeting CRISPR-Cas13d”.

B1: target 1 U3A,C7G (mixed)
RNA 1: CACCCGUGCAAAAAUGCAGGGGUCUAAAACUGAGCGGAUAACCUCUCUAUGG
RNA 2: GGGAAUGGAUCCACAUCUACGAAUUCGUACCAUAGAGAGGUUAUGCGCACACCGAGAUCGGAAGAGCACACGU
B2: target 1 U11G,A16U (mixed)
RNA 1: CACCCGUGCAAAAAUGCAGGGGUCUAAAACUGAGCGGAUAACCUCUCUAUGG
RNA 2: GGGAAUGGAUCCACAUCUACGAAUUCGUACCAUAGUGAGGGUAUCCGCUCACCGAGAUCGGAAGAGCACACGU
B3: target 2 MT 5'PFS UAU 3'PFS AUU (mixed)
RNA 1: CACCCGUGCAAAAUUGCAGGGGUCUAAAACCUUCUCCAAAUUGUUUCAUCCU
RNA 2: GGGAAUGGAUCCACAUCUACGAAUUCUAUAGGAUGAAACAAUUUGGAGAAGAUUAGAUCGGAAGAGCACACGU
B4: target 2 MT 5'PFS UUA 3'PFS AAU (mixed)
RNA 1: CACCCGUGCAAAAUUGCAGGGGUCUAAAACCUUCUCCAAAUUGUUUCAUCCU
RNA 2: GGGAAUGGAUCCACAUCUACGAAUUCUUAAGGAUGAAACAAUUUGGAGAAGAAUAGAUCGGAAGAGCACACGU
B5: target 2 MT 5'PFS UGC 3'PFS CGA (mixed)
RNA 1: CACCCGUGCAAAAUUGCAGGGGUCUAAAACCUUCUCCAAAUUGUUUCAUCCU
RNA 2: GGGAAUGGAUCCACAUCUACGAAUUCUGCAGGAUGAAACAAUUUGGAGAAGCGAAGAUCGGAAGAGCACACGU
B6: target 2 MT 5'PFS CUU 3'PFS CCG (mixed)
RNA 1: CACCCGUGCAAAAUUGCAGGGGUCUAAAACCUUCUCCAAAUUGUUUCAUCCU
RNA 2: GGGAAUGGAUCCACAUCUACGAAUUCCUUAGGAUGAAACAAUUUGGAGAAGCCGAGAUCGGAAGAGCACACGU
B7: target 2 MT 5'PFS GUG 3'PFS CGU (mixed)
RNA 1: CACCCGUGCAAAAUUGCAGGGGUCUAAAACCUUCUCCAAAUUGUUUCAUCCU
RNA 2: GGGAAUGGAUCCACAUCUACGAAUUCGUGAGGAUGAAACAAUUUGGAGAAGCGUAGAUCGGAAGAGCACACGU
B8: target 2 MT 5'PFS CUU 3'PFS CCC (mixed)
RNA 1: CACCCGUGCAAAAUUGCAGGGGUCUAAAACCUUCUCCAAAUUGUUUCAUCCU
RNA 2: GGGAAUGGAUCCACAUCUACGAAUUCCUUAGGAUGAAACAAUUUGGAGAAGCCCAGAUCGGAAGAGCACACGU
B9: target 2 MT 5'PFS GAA 3'PFS AUU (mixed)
RNA 1: CACCCGUGCAAAAUUGCAGGGGUCUAAAACCUUCUCCAAAUUGUUUCAUCCU
RNA 2: GGGAAUGGAUCCACAUCUACGAAUUCGAAAGGAUGAAACAAUUUGGAGAAGAUUAGAUCGGAAGAGCACACGU
B10: target 2 MT 5'PFS UGC 3'PFS CGC (mixed)
RNA 1: CACCCGUGCAAAAUUGCAGGGGUCUAAAACCUUCUCCAAAUUGUUUCAUCCU
RNA 2: GGGAAUGGAUCCACAUCUACGAAUUCUGCAGGAUGAAACAAUUUGGAGAAGCGCAGAUCGGAAGAGCACACGU
B11: target 2 MT 5'PFS AAU 3'PFS AAC (mixed)
RNA 1: CACCCGUGCAAAAUUGCAGGGGUCUAAAACCUUCUCCAAAUUGUUUCAUCCU
RNA 2: GGGAAUGGAUCCACAUCUACGAAUUCAAUAGGAUGAAACAAUUUGGAGAAGAACAGAUCGGAAGAGCACACGU
B12: target 2 MT 5'PFS UUA 3'PFS AAG (mixed)
RNA 1: CACCCGUGCAAAAUUGCAGGGGUCUAAAACCUUCUCCAAAUUGUUUCAUCCU
RNA 2: GGGAAUGGAUCCACAUCUACGAAUUCUUAAGGAUGAAACAAUUUGGAGAAGAAGAGAUCGGAAGAGCACACGU
B13: target 2 MT 5'PFS AAU 3'PFS AAU (mixed)
RNA 1: CACCCGUGCAAAAUUGCAGGGGUCUAAAACCUUCUCCAAAUUGUUUCAUCCU
RNA 2: GGGAAUGGAUCCACAUCUACGAAUUCAAUAGGAUGAAACAAUUUGGAGAAGAAUAGAUCGGAAGAGCACACGU
B14: target 2 MT 5'PFS GAA 3'PFS CGA (mixed)
RNA 1: CACCCGUGCAAAAUUGCAGGGGUCUAAAACCUUCUCCAAAUUGUUUCAUCCU
RNA 2: GGGAAUGGAUCCACAUCUACGAAUUCGAAAGGAUGAAACAAUUUGGAGAAGCGAAGAUCGGAAGAGCACACGU
B15: target 2 MT 5'PFS UGC 3'PFS CGG (mixed)
RNA 1: CACCCGUGCAAAAUUGCAGGGGUCUAAAACCUUCUCCAAAUUGUUUCAUCCU
RNA 2: GGGAAUGGAUCCACAUCUACGAAUUCUGCAGGAUGAAACAAUUUGGAGAAGCGGAGAUCGGAAGAGCACACGU
B16: target 2 MT 5'PFS GAA 3'PFS CGG (mixed)
RNA 1: CACCCGUGCAAAAUUGCAGGGGUCUAAAACCUUCUCCAAAUUGUUUCAUCCU
RNA 2: GGGAAUGGAUCCACAUCUACGAAUUCGAAAGGAUGAAACAAUUUGGAGAAGCGGAGAUCGGAAGAGCACACGU
B17: target 2 MT 5'PFS GCU 3'PFS CUA (mixed)
RNA 1: CACCCGUGCAAAAUUGCAGGGGUCUAAAACCUUCUCCAAAUUGUUUCAUCCU
RNA 2: GGGAAUGGAUCCACAUCUACGAAUUCGCUAGGAUGAAACAAUUUGGAGAAGCUAAGAUCGGAAGAGCACACGU
B18: target 2 MT 5'PFS AGG 3'PFS AAA (mixed)
RNA 1: CACCCGUGCAAAAUUGCAGGGGUCUAAAACCUUCUCCAAAUUGUUUCAUCCU
RNA 2: GGGAAUGGAUCCACAUCUACGAAUUCAGGAGGAUGAAACAAUUUGGAGAAGAAAAGAUCGGAAGAGCACACGU
B19: target 2 MT 5'PFS GAA 3'PFS CGC (mixed)
RNA 1: CACCCGUGCAAAAUUGCAGGGGUCUAAAACCUUCUCCAAAUUGUUUCAUCCU
RNA 2: GGGAAUGGAUCCACAUCUACGAAUUCGAAAGGAUGAAACAAUUUGGAGAAGCGCAGAUCGGAAGAGCACACGU
B20: target 2 MT 5'PFS AUG 3'PFS CGC (mixed)
RNA 1: CACCCGUGCAAAAUUGCAGGGGUCUAAAACCUUCUCCAAAUUGUUUCAUCCU
RNA 2: GGGAAUGGAUCCACAUCUACGAAUUCAUGAGGAUGAAACAAUUUGGAGAAGCGCAGAUCGGAAGAGCACACGU
B21: target 2 MT 5'PFS UUA 3'PFS AAA (mixed)
RNA 1: CACCCGUGCAAAAUUGCAGGGGUCUAAAACCUUCUCCAAAUUGUUUCAUCCU
RNA 2: GGGAAUGGAUCCACAUCUACGAAUUCUUAAGGAUGAAACAAUUUGGAGAAGAAAAGAUCGGAAGAGCACACGU
B22: target 2 MT 5'PFS AAU 3'PFS AAA (mixed)
RNA 1: CACCCGUGCAAAAUUGCAGGGGUCUAAAACCUUCUCCAAAUUGUUUCAUCCU
RNA 2: GGGAAUGGAUCCACAUCUACGAAUUCAAUAGGAUGAAACAAUUUGGAGAAGAAAAGAUCGGAAGAGCACACGU
B23: target 2 MT 5'PFS CUU 3'PFS CCA (mixed)
RNA 1: CACCCGUGCAAAAUUGCAGGGGUCUAAAACCUUCUCCAAAUUGUUUCAUCCU
RNA 2: GGGAAUGGAUCCACAUCUACGAAUUCCUUAGGAUGAAACAAUUUGGAGAAGCCAAGAUCGGAAGAGCACACGU
B24: target 2 MT 5'PFS GCU 3'PFS CUG (mixed)
RNA 1: CACCCGUGCAAAAUUGCAGGGGUCUAAAACCUUCUCCAAAUUGUUUCAUCCU
RNA 2: GGGAAUGGAUCCACAUCUACGAAUUCGCUAGGAUGAAACAAUUUGGAGAAGCUGAGAUCGGAAGAGCACACGU
B25: target 2 MT 5'PFS UAU 3'PFS UCU (mixed)
RNA 1: CACCCGUGCAAAAUUGCAGGGGUCUAAAACCUUCUCCAAAUUGUUUCAUCCU
RNA 2: GGGAAUGGAUCCACAUCUACGAAUUCUAUAGGAUGAAACAAUUUGGAGAAGUCUAGAUCGGAAGAGCACACGU
B26: target 2 MT 5'PFS AAU 3'PFS AAG (mixed)
RNA 1: CACCCGUGCAAAAUUGCAGGGGUCUAAAACCUUCUCCAAAUUGUUUCAUCCU
RNA 2: GGGAAUGGAUCCACAUCUACGAAUUCAAUAGGAUGAAACAAUUUGGAGAAGAAGAGAUCGGAAGAGCACACGU
B27: target 2 MT 5'PFS UUA 3'PFS AAC (mixed)
RNA 1: CACCCGUGCAAAAUUGCAGGGGUCUAAAACCUUCUCCAAAUUGUUUCAUCCU
RNA 2: GGGAAUGGAUCCACAUCUACGAAUUCUUAAGGAUGAAACAAUUUGGAGAAGAACAGAUCGGAAGAGCACACGU

The target of the series is T1, EsCas13d, nuclease-dead (Eubacterium siraeum, UniProt B0MS50, R295A;H300A;R849A;H854A).
T1 sequence: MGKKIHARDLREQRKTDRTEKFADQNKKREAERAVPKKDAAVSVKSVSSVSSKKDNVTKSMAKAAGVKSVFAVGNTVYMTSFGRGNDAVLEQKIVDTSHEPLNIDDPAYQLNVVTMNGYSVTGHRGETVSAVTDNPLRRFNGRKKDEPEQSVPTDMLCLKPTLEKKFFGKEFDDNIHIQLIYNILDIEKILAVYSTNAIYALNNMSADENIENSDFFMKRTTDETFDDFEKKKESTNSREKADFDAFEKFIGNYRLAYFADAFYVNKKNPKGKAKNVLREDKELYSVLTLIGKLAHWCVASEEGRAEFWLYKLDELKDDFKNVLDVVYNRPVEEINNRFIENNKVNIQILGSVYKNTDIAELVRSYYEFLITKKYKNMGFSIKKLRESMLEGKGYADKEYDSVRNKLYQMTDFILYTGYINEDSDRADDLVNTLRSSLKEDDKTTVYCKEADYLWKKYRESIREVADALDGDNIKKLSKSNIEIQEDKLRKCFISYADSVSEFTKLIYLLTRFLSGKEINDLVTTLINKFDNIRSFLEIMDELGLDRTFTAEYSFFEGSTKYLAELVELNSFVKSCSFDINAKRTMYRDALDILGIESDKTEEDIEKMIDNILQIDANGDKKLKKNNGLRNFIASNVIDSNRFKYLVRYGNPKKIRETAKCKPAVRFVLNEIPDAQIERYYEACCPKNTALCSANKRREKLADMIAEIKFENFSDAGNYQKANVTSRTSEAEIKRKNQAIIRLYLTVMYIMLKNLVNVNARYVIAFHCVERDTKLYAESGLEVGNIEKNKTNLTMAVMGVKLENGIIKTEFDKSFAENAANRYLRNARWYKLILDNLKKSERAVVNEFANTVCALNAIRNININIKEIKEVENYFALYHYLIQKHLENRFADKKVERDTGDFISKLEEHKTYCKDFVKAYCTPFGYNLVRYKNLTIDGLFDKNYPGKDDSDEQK
Briefly: crRNA (strand 1, pre-loaded); Mg2+; 40 mM Tris-HCl pH 7.5, 150 mM NaCl, 6 mM MgCl2, 1 mM DTT, 0.1% Tween-20, 0.2 mg/ml BSA; 25 C; 10 min per concentration, then washed. The conditions noted are these: tags: His6-TwinStrep-SUMO cleaved; N-terminal SNAP kept (SNAP-Surface 488); label: 3' end held by stalled T7 RNA polymerase.
As to B1, the affinity, expressed as Kd, was 6.64 ± 0.29 nM.

B2 came in with a Kd of 82 ± 12 nM.

As to B3, the Kd amounted to 24.8 ± 2.3 nM.

The molecule B4 registered a Kd of 18 ± 5 nM.

B5 came in with a Kd of roughly 48 nM.

Regarding B6, binding was put at a Kd of 6 ± 0.4 nM.

In the case of B7, binding was characterised by a dissociation constant (Kd) of 14.7 ± 1.3 nM.

For the molecule B8, the Kd stood at 18 ± 9 nM.

For the molecule B9, the Kd was 7.3 ± 1.1 nM.

In turn, B10 gave a Kd of 66 ± 11 nM.

For the molecule B11, binding was put at a Kd of 5.2 ± 0.8 nM.

In turn, B12 had a dissociation constant Kd of 17.5 ± 1.8 nM.

As for B13, the Kd stood at 4.1 ± 0.6 nM.

In the case of B14, binding was characterised by a dissociation constant (Kd) of 9.2 ± 1.7 nM. This Kd lies about 2.2-fold higher than the previous one.

B15 showed a Kd of 38 ± 6 nM.

For the molecule B16, the Kd turned out to be 9.6 ± 1.5 nM.

B17 had a Kd of 17 ± 5 nM. This Kd is about 1.8-fold higher than that of the molecule before.

As for B18, the Kd amounted to 4.3 ± 0.9 nM.

The molecule B19 showed a Kd of 7.4 ± 0.5 nM.

Take B20: the Kd was determined as 8.1 ± 0.8 nM.

Consider B21, for which binding was put at a Kd of 14.6 ± 2.7 nM.

Turning to B22, the Kd was found to be 3.2 ± 0.5 nM.

B23 came in with a Kd of 8.9 ± 1.1 nM.

Turning to B24, the affinity, expressed as Kd, was 30 ± 11 nM.

As for B25, the Kd is 81 ± 23 nM.

On to B26, for which the Kd came out at 5.5 ± 0.9 nM.

As for B27, the Kd is 18.7 ± 3.1 nM.

For orientation: Kd means the concentration at which binding is half-saturated.
